# Data from patent US20070274915.
# Tested on: AU-tagged PLC-γ1
# Sequence (P19174 2-1290): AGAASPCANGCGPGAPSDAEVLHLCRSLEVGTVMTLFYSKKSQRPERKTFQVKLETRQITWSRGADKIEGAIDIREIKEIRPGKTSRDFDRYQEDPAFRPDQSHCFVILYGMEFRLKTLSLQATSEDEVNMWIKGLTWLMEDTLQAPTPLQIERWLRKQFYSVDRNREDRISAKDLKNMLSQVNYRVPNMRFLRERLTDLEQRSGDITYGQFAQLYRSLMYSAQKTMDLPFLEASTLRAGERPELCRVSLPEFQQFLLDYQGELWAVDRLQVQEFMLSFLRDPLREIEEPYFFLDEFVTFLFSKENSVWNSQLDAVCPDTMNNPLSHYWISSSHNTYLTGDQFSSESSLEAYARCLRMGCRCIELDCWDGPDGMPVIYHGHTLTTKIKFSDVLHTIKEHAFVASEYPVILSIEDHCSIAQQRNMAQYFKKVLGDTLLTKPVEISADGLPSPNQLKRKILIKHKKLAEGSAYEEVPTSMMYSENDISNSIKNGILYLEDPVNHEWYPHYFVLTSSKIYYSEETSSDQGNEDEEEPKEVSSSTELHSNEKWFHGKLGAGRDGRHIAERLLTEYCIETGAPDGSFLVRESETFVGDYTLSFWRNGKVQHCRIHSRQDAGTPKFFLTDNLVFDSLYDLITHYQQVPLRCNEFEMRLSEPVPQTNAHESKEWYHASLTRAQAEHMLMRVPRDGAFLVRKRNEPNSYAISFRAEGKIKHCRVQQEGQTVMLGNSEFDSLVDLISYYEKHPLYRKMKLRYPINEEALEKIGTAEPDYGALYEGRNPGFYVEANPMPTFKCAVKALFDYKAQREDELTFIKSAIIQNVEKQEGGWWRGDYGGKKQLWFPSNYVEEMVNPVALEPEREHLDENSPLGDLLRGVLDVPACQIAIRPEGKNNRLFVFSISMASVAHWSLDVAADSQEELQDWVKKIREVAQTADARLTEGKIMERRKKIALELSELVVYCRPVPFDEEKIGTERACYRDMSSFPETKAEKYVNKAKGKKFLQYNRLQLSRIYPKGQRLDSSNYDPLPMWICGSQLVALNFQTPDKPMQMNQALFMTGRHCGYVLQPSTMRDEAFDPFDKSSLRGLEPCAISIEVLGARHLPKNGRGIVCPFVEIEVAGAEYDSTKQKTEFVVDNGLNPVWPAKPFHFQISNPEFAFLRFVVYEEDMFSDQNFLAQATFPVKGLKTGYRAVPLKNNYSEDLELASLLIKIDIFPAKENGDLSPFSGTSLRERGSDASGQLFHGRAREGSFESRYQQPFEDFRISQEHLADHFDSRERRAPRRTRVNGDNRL
# Chain of myc-tagged Itch (chain, as listed by the source): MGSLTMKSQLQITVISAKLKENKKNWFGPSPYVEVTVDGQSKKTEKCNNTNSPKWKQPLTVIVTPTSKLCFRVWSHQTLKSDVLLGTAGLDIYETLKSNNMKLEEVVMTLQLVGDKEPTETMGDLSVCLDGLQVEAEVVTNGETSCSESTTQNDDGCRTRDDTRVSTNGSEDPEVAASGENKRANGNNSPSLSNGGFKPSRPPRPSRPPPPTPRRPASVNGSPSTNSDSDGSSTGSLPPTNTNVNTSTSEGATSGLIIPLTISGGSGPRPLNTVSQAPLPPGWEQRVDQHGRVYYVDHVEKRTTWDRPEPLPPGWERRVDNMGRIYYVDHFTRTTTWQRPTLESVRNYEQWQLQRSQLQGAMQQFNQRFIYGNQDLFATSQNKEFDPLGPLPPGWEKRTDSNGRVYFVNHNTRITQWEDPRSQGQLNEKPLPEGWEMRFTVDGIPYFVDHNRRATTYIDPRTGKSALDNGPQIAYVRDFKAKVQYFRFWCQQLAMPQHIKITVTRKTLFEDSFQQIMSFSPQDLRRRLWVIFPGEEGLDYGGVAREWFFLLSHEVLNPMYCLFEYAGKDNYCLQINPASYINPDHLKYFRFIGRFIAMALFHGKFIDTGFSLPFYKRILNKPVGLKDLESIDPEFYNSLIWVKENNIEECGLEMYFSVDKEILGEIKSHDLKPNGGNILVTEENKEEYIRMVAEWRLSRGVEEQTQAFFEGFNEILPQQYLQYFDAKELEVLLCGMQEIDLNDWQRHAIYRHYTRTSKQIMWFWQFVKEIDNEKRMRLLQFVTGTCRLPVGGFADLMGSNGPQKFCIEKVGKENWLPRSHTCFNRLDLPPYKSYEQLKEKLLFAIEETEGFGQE
substance,measurement,value
myc-tagged Itch,"ionomycin-dependent degradation of PLC-γ1 (HEK 293 transfection, immunoblot)",Itch and Nedd4 both facilitated the ionomycin-dependent degradation of PLC-γ1
